Starred links: 1 amine or outer side, 2 acyl side, 3 side chain; linkers in the order of their positions; H or OH if unused. Non-standard residues stand in square brackets, D forms with d. Groups on a side chain read outwards from the residue. No end group written: not given here. *: point of attachment. C20 diacid = O=C(O)CCCCCCCCCCCCCCCCCCC(=O)*; C18 diacid = O=C(O)CCCCCCCCCCCCCCCCC(=O)*; γGlu = O=C(O)[C@H](CCC(=O)[*:2])N[*:1]; αMeF = C[C@](N)(Cc1ccccc1)C(=O)O; AEEA = NCCOCCOCC(=O)O; Aib = CC(C)(N)C(=O)O
B1: Peptide 463 (peptide)
peptide: H[Aib]QGTFTSDVSK[αMeF]LDSK([AEEA-AEEA-γGlu-γGlu-C18 diacid])RAQDFVQWLL[Aib]T-NH2
modifications: N-terminus assumed
SMILES: CC(C)C[C@H](NC(=O)[C@H](Cc1c[nH]c2ccccc12)NC(=O)[C@H](CCC(N)=O)NC(=O)[C@@H](NC(=O)[C@H](Cc1ccccc1)NC(=O)[C@H](CC(=O)O)NC(=O)[C@H](CCC(N)=O)NC(=O)[C@H](C)NC(=O)[C@H](CCCNC(=N)N)NC(=O)[C@H](CCCCNC(=O)COCCOCCNC(=O)COCCOCCNC(=O)CC[C@H](NC(=O)CC[C@H](NC(=O)CCCCCCCCCCCCCCCCC(=O)O)C(=O)O)C(=O)O)NC(=O)[C@H](CO)NC(=O)[C@H](CC(=O)O)NC(=O)[C@H](CC(C)C)NC(=O)[C@](C)(Cc1ccccc1)NC(=O)[C@H](CCCCN)NC(=O)[C@H](CO)NC(=O)[C@@H](NC(=O)[C@H](CC(=O)O)NC(=O)[C@H](CO)NC(=O)[C@@H](NC(=O)[C@H](Cc1ccccc1)NC(=O)[C@@H](NC(=O)CNC(=O)[C@H](CCC(N)=O)NC(=O)C(C)(C)NC(=O)[C@@H](N)Cc1c[nH]cn1)[C@@H](C)O)[C@@H](C)O)C(C)C)C(C)C)C(=O)N[C@@H](CC(C)C)C(=O)NC(C)(C)C(=O)N[C@H](C(N)=O)[C@@H](C)O
B2: Peptide 409 (peptide)
peptide: H[Aib]QGTFTSDVSK[αMeF]LDTK([AEEA-AEEA-γGlu-C18 diacid])RARDFVAWLL[Aib]TE-OH
modifications: N-terminus assumed
SMILES: CC(C)C[C@H](NC(=O)[C@H](Cc1c[nH]c2ccccc12)NC(=O)[C@H](C)NC(=O)[C@@H](NC(=O)[C@H](Cc1ccccc1)NC(=O)[C@H](CC(=O)O)NC(=O)[C@H](CCCNC(=N)N)NC(=O)[C@H](C)NC(=O)[C@H](CCCNC(=N)N)NC(=O)[C@H](CCCCNC(=O)COCCOCCNC(=O)COCCOCCNC(=O)CC[C@H](NC(=O)CCCCCCCCCCCCCCCCC(=O)O)C(=O)O)NC(=O)[C@@H](NC(=O)[C@H](CC(=O)O)NC(=O)[C@H](CC(C)C)NC(=O)[C@](C)(Cc1ccccc1)NC(=O)[C@H](CCCCN)NC(=O)[C@H](CO)NC(=O)[C@@H](NC(=O)[C@H](CC(=O)O)NC(=O)[C@H](CO)NC(=O)[C@@H](NC(=O)[C@H](Cc1ccccc1)NC(=O)[C@@H](NC(=O)CNC(=O)[C@H](CCC(N)=O)NC(=O)C(C)(C)NC(=O)[C@@H](N)Cc1c[nH]cn1)[C@@H](C)O)[C@@H](C)O)C(C)C)[C@@H](C)O)C(C)C)C(=O)N[C@@H](CC(C)C)C(=O)NC(C)(C)C(=O)N[C@H](C(=O)N[C@@H](CCC(=O)O)C(=O)O)[C@@H](C)O
B3: Peptide 410 (peptide)
peptide: H[Aib]QGTFTSDVSK[αMeF]LDTK([AEEA-AEEA-γGlu-C20 diacid])RARDFVAWLL[Aib]TE-OH
modifications: N-terminus assumed
SMILES: CC(C)C[C@H](NC(=O)[C@H](Cc1c[nH]c2ccccc12)NC(=O)[C@H](C)NC(=O)[C@@H](NC(=O)[C@H](Cc1ccccc1)NC(=O)[C@H](CC(=O)O)NC(=O)[C@H](CCCNC(=N)N)NC(=O)[C@H](C)NC(=O)[C@H](CCCNC(=N)N)NC(=O)[C@H](CCCCNC(=O)COCCOCCNC(=O)COCCOCCNC(=O)CC[C@H](NC(=O)CCCCCCCCCCCCCCCCCCC(=O)O)C(=O)O)NC(=O)[C@@H](NC(=O)[C@H](CC(=O)O)NC(=O)[C@H](CC(C)C)NC(=O)[C@](C)(Cc1ccccc1)NC(=O)[C@H](CCCCN)NC(=O)[C@H](CO)NC(=O)[C@@H](NC(=O)[C@H](CC(=O)O)NC(=O)[C@H](CO)NC(=O)[C@@H](NC(=O)[C@H](Cc1ccccc1)NC(=O)[C@@H](NC(=O)CNC(=O)[C@H](CCC(N)=O)NC(=O)C(C)(C)NC(=O)[C@@H](N)Cc1c[nH]cn1)[C@@H](C)O)[C@@H](C)O)C(C)C)[C@@H](C)O)C(C)C)C(=O)N[C@@H](CC(C)C)C(=O)NC(C)(C)C(=O)N[C@H](C(=O)N[C@@H](CCC(=O)O)C(=O)O)[C@@H](C)O
B4: Peptide 461 (peptide)
peptide: H[Aib]QGTFTSDVSK[αMeF]LDRK([AEEA-AEEA-γGlu-C18 diacid])RAQDFVRWLLAE-NH2
modifications: N-terminus assumed
SMILES: CC(C)C[C@H](NC(=O)[C@H](CC(C)C)NC(=O)[C@H](Cc1c[nH]c2ccccc12)NC(=O)[C@H](CCCNC(=N)N)NC(=O)[C@@H](NC(=O)[C@H](Cc1ccccc1)NC(=O)[C@H](CC(=O)O)NC(=O)[C@H](CCC(N)=O)NC(=O)[C@H](C)NC(=O)[C@H](CCCNC(=N)N)NC(=O)[C@H](CCCCNC(=O)COCCOCCNC(=O)COCCOCCNC(=O)CC[C@H](NC(=O)CCCCCCCCCCCCCCCCC(=O)O)C(=O)O)NC(=O)[C@H](CCCNC(=N)N)NC(=O)[C@H](CC(=O)O)NC(=O)[C@H](CC(C)C)NC(=O)[C@](C)(Cc1ccccc1)NC(=O)[C@H](CCCCN)NC(=O)[C@H](CO)NC(=O)[C@@H](NC(=O)[C@H](CC(=O)O)NC(=O)[C@H](CO)NC(=O)[C@@H](NC(=O)[C@H](Cc1ccccc1)NC(=O)[C@@H](NC(=O)CNC(=O)[C@H](CCC(N)=O)NC(=O)C(C)(C)NC(=O)[C@@H](N)Cc1c[nH]cn1)[C@@H](C)O)[C@@H](C)O)C(C)C)C(C)C)C(=O)N[C@@H](C)C(=O)N[C@@H](CCC(=O)O)C(N)=O
B5: Peptide 408 (peptide)
peptide: H[Aib]QGTFTSDVSK[αMeF]LDTK([AEEA-AEEA-γGlu-γGlu-C20 diacid])RAQDFVRWLEA[Aib]G-OH
modifications: N-terminus assumed
SMILES: CC(C)C[C@H](NC(=O)[C@H](Cc1c[nH]c2ccccc12)NC(=O)[C@H](CCCNC(=N)N)NC(=O)[C@@H](NC(=O)[C@H](Cc1ccccc1)NC(=O)[C@H](CC(=O)O)NC(=O)[C@H](CCC(N)=O)NC(=O)[C@H](C)NC(=O)[C@H](CCCNC(=N)N)NC(=O)[C@H](CCCCNC(=O)COCCOCCNC(=O)COCCOCCNC(=O)CC[C@H](NC(=O)CC[C@H](NC(=O)CCCCCCCCCCCCCCCCCCC(=O)O)C(=O)O)C(=O)O)NC(=O)[C@@H](NC(=O)[C@H](CC(=O)O)NC(=O)[C@H](CC(C)C)NC(=O)[C@](C)(Cc1ccccc1)NC(=O)[C@H](CCCCN)NC(=O)[C@H](CO)NC(=O)[C@@H](NC(=O)[C@H](CC(=O)O)NC(=O)[C@H](CO)NC(=O)[C@@H](NC(=O)[C@H](Cc1ccccc1)NC(=O)[C@@H](NC(=O)CNC(=O)[C@H](CCC(N)=O)NC(=O)C(C)(C)NC(=O)[C@@H](N)Cc1c[nH]cn1)[C@@H](C)O)[C@@H](C)O)C(C)C)[C@@H](C)O)C(C)C)C(=O)N[C@@H](CCC(=O)O)C(=O)N[C@@H](C)C(=O)NC(C)(C)C(=O)NCC(=O)O
B6: Peptide 407 (peptide)
peptide: H[Aib]QGTFTSDVSK[αMeF]LDTK([AEEA-AEEA-γGlu-C20 diacid])RAQDFVRWLEA[Aib]G-OH
modifications: N-terminus assumed
SMILES: CC(C)C[C@H](NC(=O)[C@H](Cc1c[nH]c2ccccc12)NC(=O)[C@H](CCCNC(=N)N)NC(=O)[C@@H](NC(=O)[C@H](Cc1ccccc1)NC(=O)[C@H](CC(=O)O)NC(=O)[C@H](CCC(N)=O)NC(=O)[C@H](C)NC(=O)[C@H](CCCNC(=N)N)NC(=O)[C@H](CCCCNC(=O)COCCOCCNC(=O)COCCOCCNC(=O)CC[C@H](NC(=O)CCCCCCCCCCCCCCCCCCC(=O)O)C(=O)O)NC(=O)[C@@H](NC(=O)[C@H](CC(=O)O)NC(=O)[C@H](CC(C)C)NC(=O)[C@](C)(Cc1ccccc1)NC(=O)[C@H](CCCCN)NC(=O)[C@H](CO)NC(=O)[C@@H](NC(=O)[C@H](CC(=O)O)NC(=O)[C@H](CO)NC(=O)[C@@H](NC(=O)[C@H](Cc1ccccc1)NC(=O)[C@@H](NC(=O)CNC(=O)[C@H](CCC(N)=O)NC(=O)C(C)(C)NC(=O)[C@@H](N)Cc1c[nH]cn1)[C@@H](C)O)[C@@H](C)O)C(C)C)[C@@H](C)O)C(C)C)C(=O)N[C@@H](CCC(=O)O)C(=O)N[C@@H](C)C(=O)NC(C)(C)C(=O)NCC(=O)O
B7: Peptide 140 (peptide)
peptide: H[Aib]QGTFTSDVSK[αMeF]LDTK([AEEA-AEEA-γGlu-C18 diacid])RAQDFVRWLLE[Aib]G-OH
modifications: N-terminus assumed
SMILES: CC(C)C[C@H](NC(=O)[C@H](Cc1c[nH]c2ccccc12)NC(=O)[C@H](CCCNC(=N)N)NC(=O)[C@@H](NC(=O)[C@H](Cc1ccccc1)NC(=O)[C@H](CC(=O)O)NC(=O)[C@H](CCC(N)=O)NC(=O)[C@H](C)NC(=O)[C@H](CCCNC(=N)N)NC(=O)[C@H](CCCCNC(=O)COCCOCCNC(=O)COCCOCCNC(=O)CC[C@H](NC(=O)CCCCCCCCCCCCCCCCC(=O)O)C(=O)O)NC(=O)[C@@H](NC(=O)[C@H](CC(=O)O)NC(=O)[C@H](CC(C)C)NC(=O)[C@](C)(Cc1ccccc1)NC(=O)[C@H](CCCCN)NC(=O)[C@H](CO)NC(=O)[C@@H](NC(=O)[C@H](CC(=O)O)NC(=O)[C@H](CO)NC(=O)[C@@H](NC(=O)[C@H](Cc1ccccc1)NC(=O)[C@@H](NC(=O)CNC(=O)[C@H](CCC(N)=O)NC(=O)C(C)(C)NC(=O)[C@@H](N)Cc1c[nH]cn1)[C@@H](C)O)[C@@H](C)O)C(C)C)[C@@H](C)O)C(C)C)C(=O)N[C@@H](CC(C)C)C(=O)N[C@@H](CCC(=O)O)C(=O)NC(C)(C)C(=O)NCC(=O)O

Molecular target: human GLP-1 receptor (hGLP-1R) (human, UniProt P43220 24-463)
Experiment: cell-based or functional assay

Row | hGLP-1R EC50 (pM) | Binder
1 | 274 pM | B1
2 | 22.7 pM | B2
3 | 78 pM | B3
4 | 167 pM | B4
5 | 370 pM | B5
6 | 209 pM | B6
7 | 22.7 pM | B7

Molecular target: human glucagon receptor (hGCGR) (human, UniProt P47871 26-477)
Experiment: cell-based or functional assay

Chain of human glucagon receptor (hGCGR) (P47871 26-477): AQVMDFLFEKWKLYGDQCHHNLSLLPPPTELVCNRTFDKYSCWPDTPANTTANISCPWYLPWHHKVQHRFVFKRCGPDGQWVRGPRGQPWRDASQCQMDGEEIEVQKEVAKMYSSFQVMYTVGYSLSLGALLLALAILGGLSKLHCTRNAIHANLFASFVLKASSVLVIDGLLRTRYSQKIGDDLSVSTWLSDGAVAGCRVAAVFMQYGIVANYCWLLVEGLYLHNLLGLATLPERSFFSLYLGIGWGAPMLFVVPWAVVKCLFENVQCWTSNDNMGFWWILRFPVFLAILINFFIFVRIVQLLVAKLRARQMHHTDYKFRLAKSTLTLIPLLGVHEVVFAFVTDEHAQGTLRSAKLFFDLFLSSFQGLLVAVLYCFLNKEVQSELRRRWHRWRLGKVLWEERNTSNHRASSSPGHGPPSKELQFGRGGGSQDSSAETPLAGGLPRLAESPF

Row | hGluc-R EC50 (pM) | Binder
8 | 203 pM | B2
9 | 455 pM | B3
10 | 828 pM | B5
11 | 385 pM | H[Aib]QGTFTSDVSK[αMeF]LDTK([AEEA-AEEA-γGlu-γGlu-C20 diacid])RARDFVQWLLE[Aib]G-NH2 [Peptide 458]
12 | 462 pM | B6
